Residue numbers refer to the chain shown, from its start.
T1: His-tagged HM1.24 antigen, residues N49-A163 of the extracellular domain (human, UniProt Q10589 49-163)
T1 sequence: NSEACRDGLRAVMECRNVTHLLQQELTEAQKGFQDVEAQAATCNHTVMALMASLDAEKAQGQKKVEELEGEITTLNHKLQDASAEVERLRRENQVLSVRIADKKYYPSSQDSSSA

B1: HM1.24_H2L2 (antibody, human IgG1, kappa, V domains shown)
VH: EVQLVESGGGLVKPGGSLRLSCAASGYTFTPYWMQWVRQAPGKGLEWMGSIFPGDGDTRYSQSFQGQVTISADKSISTAYMELSSLRSEDTAVYYCARGLRRGGYYFDYWGQGTLVTVSS
VL: DIVMTQSPSSLSASVGDRVTITCQASQDVNTAVAWYQQKPDQSPKLLIYSASNRYTGVPDRITGSGSGTDFTLTISSLQAEDVAVYYCQQHYSTPFTFGSGTKLEIKR
B2: HM1.24_H0L0 (parent antibody in the flow cytometry screen of Example 3) (antibody, V domains shown)
VH: QVQLQQSGAELARPGASVKLSCKASGYTFTPYWMQWVKQRPGQGLEWIGSIFPGDGDTRYSQKFKGKATLTADKSSSTAYMQLSILAFEDSAVYYCARGLRRGGYYFDYWGQGTTLTVSS
VL: DIVMTQSHKFMSTSVGDRVSITCKASQDVNTAVAWYQQKPGQSPKLLIYSASNRYTGVPDRITGSGSGTDFTFTISSVQAEDLALYYCQQHYSTPFTFGSGTKLEIK
B3: HM1.24_H1L2 (antibody, human IgG1, kappa, V domains shown)
VH: QVQLVQSGAEVKKPGASVKVSCKASGYTFTPYWMQWVRQAPGQGLEWMGSIFPGDGDTRYSQSFQGQVTISADKSISTAYMELSRLRSDDTAVYYCARGLRRGGYYFDYWGQGTLVTVSS
VL: B1 VL
B4: HM1.24_H0L0_IgG1_WT (antibody, V domains shown)
VH: B2 VH
VL: DIVMTQSHKFMSTSVGDRVSITCKASQDVNTAVAWYQQKPGQSPKLLIYSASNRYTGVPDRITGSGSGTDFTFTISSVQAEDLALYYCQQHYSTPFTFGSGTKLEIKR
B5: HM1.24_H1.1 heavy chain variant with HM1.24_L4 light chain (antibody, human IgG1, kappa, V domains shown)
VH: B3 VH with D55E
VL: DIVMTQSPLSLPVTLGQPASISCKASQDVNTAVAWYLQKPGKSPKLLIYSASNRYTGVPDRITGSGSGTDFTLKISRVEAEDVGVYYCQQHYSTPFTFGSGTKLEIKR
B6: HM1.24_H2.4 heavy chain variant with HM1.24_L4 light chain (antibody, human IgG1, kappa, V domains shown)
VH: B1 VH with G56A
VL: B5 VL
B7: HM1.24_H2.3 heavy chain variant with HM1.24_L4 light chain (antibody, human IgG1, kappa, V domains shown)
VH: B1 VH with G56S
VL: B5 VL
B8: HM1.24_H1.3 heavy chain variant with HM1.24_L4 light chain (antibody, human IgG1, kappa, V domains shown)
VH: B3 VH with G56S
VL: B5 VL
B9: HM1.24_H1.2 heavy chain variant with HM1.24_L4 light chain (antibody, human IgG1, kappa, V domains shown)
VH: B3 VH with D55S
VL: B5 VL
B10: HM1.24_H1.4 heavy chain variant with HM1.24_L4 light chain (antibody, human IgG1, kappa, V domains shown)
VH: B3 VH with G56A
VL: B5 VL
B11: HM1.24_H2.1 heavy chain variant with HM1.24_L4 light chain (antibody, human IgG1, kappa, V domains shown)
VH: B1 VH with D55E
VL: B5 VL

What follows are binders tested against T2, Human HM1.24 on RPMI 8226 multiple myeloma cells (human, UniProt Q10589 1-161) (assay: flow cytometry on HM1.24+ RPMI 8226 cells).
T2 sequence (Q10589 1-161 limits assumed): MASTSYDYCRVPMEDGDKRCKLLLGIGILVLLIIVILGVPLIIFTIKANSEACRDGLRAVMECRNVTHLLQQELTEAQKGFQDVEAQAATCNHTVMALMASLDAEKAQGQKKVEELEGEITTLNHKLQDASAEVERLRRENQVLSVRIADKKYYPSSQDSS

Row | binding result | Binder
1 | binds | B1
2 | binds | B2
3 | binds | B3

These binders were tested against T2, Human HM1.24 on RPMI 8226 multiple … (assay: flow cytometry on RPMI 8226 multiple myeloma cells, R-PE anti-human IgG F).

Row | binding result | Binder
4 | binds | B4

Each binder was assayed against T1, His-tagged HM1.24 antigen, residues … (assay: not given).

Row | binding result | Binder
5 | binds | B5
6 | binds | B6
7 | binds | B7
8 | binds | B8
9 | binds | B9
10 | binds | B10
11 | binds | B11
